Target: AEBP2 (shorter isoform) (human)
Assay: negative-stain EM 3D reconstruction with localisation of MBP and GFP tags; purified PRC2-AEBP2 complex mildly cross-linked with 0.015% glutaraldehyde, stained with 2% uranyl formate; random conical tilt and projection matching, 21 Å; tags located in reference-free 2D class averages

stoichiometry N	Substance
1	Ezh2 (from UniProt Q15910-2 1-751) (enzyme)
1	EED (from UniProt O75530 1-441) (natural protein)
